Measurements published in IntAct's records for PubMed 18566586.

B1: RAC-alpha serine/threonine-protein kinase (Mus musculus), P31750 (parent)
chain: MNDVAIVKEGWLHKRGEYIKTWRPRYFLLKNDGTFIGYKERPQDVDQRESPLNNFSVAQCQLMKTERPRPNTFIIRCLQWTTVIERTFHVETPEEREEWATAIQTVADGLKRQEEETMDFRSGSPSDNSGAEEMEVSLAKPKHRVTMNEFEYLKLLGKGTFGKVILVKEKATGRYYAMKILKKEVIVAKDEVAHTLTENRVLQNSRHPFLTALKYSFQTHDRLCFVMEYANGGELFFHLSRERVFSEDRARFYGAEIVSALDYLHSEKNVVYRDLKLENLMLDKDGHIKITDFGLCKEGIKDGATMKTFCGTPEYLAPEVLEDNDYGRAVDWWGLGVVMYEMMCGRLPFYNQDHEKLFELILMEEIRFPRTLGPEAKSLLSGLLKKDPTQRLGGGSEDAKEIMQHRFFANIVWQDVYEKKLSPPFKPQVTSETDTRYFDEEFTAQMITITPPDQDDSMECVDSERRPHFPQFSYSASGTA

Variants of: B1
Settings: with hs90a_mouse Hsp90aa1, P07901

Q: For T450A, which “effect of a mutation on the interaction” value is on record?
A: The value was “increasing interaction”.

Variants of: B1
Settings: with hs90a_mouse Hsp90aa1, P07901
Remark: another data set of the same source

Q: With K182M as the variant, how does the “effect of a mutation on the interaction” value read?
A: Its value is “increasing interaction”.

Q: How did the “effect of a mutation on the interaction” value turn out when R222M was run?
A: Its value is “increasing interaction”.

Variants of: B1
Settings: with hs90a_mouse Hsp90aa1, P07901
Remark: another data set of the same source

Q: K163M was tested. Which “effect of a mutation on the interaction” value did it give?
A: The value was “increasing interaction”.

Variants of: B1
Settings: with hs90a_mouse Hsp90aa1, P07901
Remark: another data set of the same source

Q: Which “effect of a mutation on the interaction” value does the source give for T443A here?
A: Its value is “increasing interaction”.
